# Measurements: US20230135723A1, “ANTI-CD98 ANTIBODIES AND ANTIBODY DRUG CONJUGATES” (AbbVie Inc., priority 2016, published 2023)
# Marks after values point to notes of the source that are not given here.
# Legend:
# [1] = tested on: NCI-H146 (human small cell lung cancer) xenograft; assay: NCI-H146 xenograft tumor growth inhibition; format: in vivo, SCID-bg mice; conditions: for Growth Inhibition TGImax (%): 10 mg/kg/day IP QDx1; for Response Frequency CR (%): 10 mg/kg/day IP QDx1, complete responders; for Response Frequency OR (%): 10 mg/kg/day IP QDx1, overall responders; for Response Frequency PR (%): 10 mg/kg/day IP QDx1, partial responders; for Growth Inhibition TGD (%): 10 mg/kg/day IP QDx1, tumor growth delay to 1 cm^3
# Experimental: The in vivo efficacy of anti-CD98 hybridoma mAb conjugates were tested using Ab3-CZ and Ab5-CZ as examples in NCI-H146 (human small cell lung cancer) xenograft model. The two anti-CD98 hybridoma mAb, Ab3-CZ and Ab5-CZ, were conjugated to the Bcl-xL inhibitor synthon CZ according to Method A. NCI-H146 was obtained from the American Type Culture Collection (ATCC, Manassas, Va.). The cells were cultured as monolayers in RPMI-1640 culture media (Invitrogen, Carlsbad, Calif.) that was supplemented with 10% Fetal Bovine Serum (FBS, Hyclone, Logan, Utah). To generate xenografts, 5×10^6 (NCI-H146) viable cells were inoculated subcutaneously into the right flank of immune deficient female SCID-bg mice (Charles River Laboratories, Wilmington, Mass.). The injection volume was 0.2 mL and composed of Matrigel (BD, Franklin Lakes, N.J.). Tumors were size matched at approximately 212 mm^3. Antibodies and conjugates were formulated in phosphate buffered saline, pH 7.2 and injected intraperitoneally. […] Therapy began within 24 hours after size matching of the tumors. Mice weighed approximately 21 g at the onset of therapy. Tumor volume was estimated two to three times weekly. Measurements of the length (L) and width (W) of the tumor were taken via electronic caliper and the volume was calculated according to the following equation: V=L×W^2/2. Mice were euthanized when tumor volume reached 3,000 mm^3 or skin ulcerations occurred. Eight mice were housed per cage. Food and water were available ad libitum. Mice were acclimated to the animal facilities for a period of at least one week prior to commencement of experiments. Animals were tested in the light phase of a 12-hour light: 12-hour dark schedule (lights on at 06:00 hours). Anti-CD98 conjugates (10 mg/kg) were administered as a single dose (QD×1) intraperitoneally. A human IgG control antibody (MSL109, a humanized IgG1 antibody that binds to cytomegalovirus (CMV) glycoprotein H) was used as a negative control agent.
# To refer to efficacy of therapeutic agents, parameters of amplitude (TGImax), durability (TGD) and response frequency (CR, PR, OR) of therapeutic response are used. The efficacy of inhibition of NCI-H146 xenografts growth with CD98-targeted ADCs is illustrated by Table 6, below. In the tables, to refer to efficacy, parameters of amplitude (TGImax) and durability (TGD) of therapeutic response are used. TGImax is the maximum tumor growth inhibition during the experiment. Tumor growth inhibition is calculated by 100*(1−Tv/Cv) where Tv and Cv are the mean tumor volumes of the treated and control groups, respectively. TGD or tumor growth delay is the extended time of a treated tumor needed to reach a volume of 1 cm^3 relative to the control group. TGD is calculated by 100*(Tt/Ct−1) where Tt and Cr are the median time periods to reach 1 cm^3 of the treated and control groups, respectively. Distribution of the response amplitude in a specific group is given by the frequency of complete responders (CR), partial responders (PR), and overall responders (OR). CR is the percentage of mice within a group with a tumor burden of 25 mm^3 for at least three measurements. PR is the percentage of mice within a group with a tumor burden larger than 25 mm^3 but less than one-half of the volume at onset of treatment for at least three measurements. OR is the sum of CR and PR.
# [2] = Percent aggregates of ADC by size exclusion chromatography; format: physicochemical; conditions: chAb3-CZ DAR2, DAR4 and broad DAR species (Table 12)
# Text: Procedures for DAR and percent aggregate determination are described above in Example 5.
# [3] = tested on: EBC-1 (human lung squamous cell carcinoma) xenograft; assay: EBC-1 xenograft tumor growth inhibition; format: in vivo; conditions: 10 mg/kg/day IP QDx1, SCID-bg mice
Molecule,Growth Inhibition TGImax (%) [1],Response Frequency CR (%) [1] [%],Response Frequency OR (%) [1] [%],Response Frequency PR (%) [1] [%],Growth Inhibition TGD (%) [1],% Aggregates by SEC [2] [%],Growth Inhibition TGD (%) [3],Growth Inhibition TGImax (%) [3],Response Frequency CR (%) [3] [%],Response Frequency OR (%) [3] [%],Response Frequency PR (%) [3] [%]
"MSL109: ""a humanized IgG1 antibody that binds to cytomegalovirus (CMV) glycoprotein H"", ""used as a negative control agent"" [reference compound]",0%,0,0,0,0%,,,,,,
Ab3-CZ (conjugate) VH: EVKLVESGGGLVQPGNSLRLSCATSGFTFIDYYMSWVRQSPGKALEWLGFIRNKANGYTTEYSASVKGRFTISRDNSQSILYLQMDTLRAEDSATYYCTRDRPAWFVYWGQGTLVTVSA VL: DIVMSQSPSSLAVSVGEKVTMSCKSSQSLLYSSNQKNYLAWYQQKPGQSPKLLIYWASTRESGVPDRFTGSGSGTDFTLTFSSVRAEDLAVYYCQQYYSYPYTFGGGTKLEIK,79* %,0,50,50,81* %,,,,,,
Ab5-CZ (conjugate) VH: EVKLVESGGGLVQPGGSLRLSCATSGFTFTDYYMTWVRQPPGKALEWLGFIRNKANGYTTEYSASVKGRFTISRDNSLSILYLQMNTLRAEDSATYYCARASYVNSEGWFAYWGQGTLVTVSA VL: DIVMSQSPSSLAVSVGEKVTMSCKSSQSLLYSSNQKNYLAWYQQKLGQSPKLLIYWASTRESGVPDRFTGSGSGTDFTLTISSVKAEDLAVYYCQHYYSYPRTFGGGTKLEIK,76* %,0,0,0,76* %,,,,,,
ChAb3- CZ-Broad DAR (conjugate) VH: EVKLVESGGGLVQPGNSLRLSCATSGFTFIDYYMSWVRQSPGKALEWLGFIRNKANGYTTEYSASVKGRFTISRDNSQSILYLQMDTLRAEDSATYYCTRDRPAWFVYWGQGTLVTVSA VL: DIVMSQSPSSLAVSVGEKVTMSCKSSQSLLYSSNQKNYLAWYQQKPGQSPKLLIYWASTRESGVPDRFTGSGSGTDFTLTFSSVRAEDLAVYYCQQYYSYPYTFGGGTKLEIK,,,,,,12.2,,,,,
ChAb5-CZ (conjugate) VH: EVKLVESGGGLVQPGGSLRLSCATSGFTFTDYYMTWVRQPPGKALEWLGFIRNKANGYTTEYSASVKGRFTISRDNSLSILYLQMNTLRAEDSATYYCARASYVNSEGWFAYWGQGTLVTVSA VL: DIVMSQSPSSLAVSVGEKVTMSCKSSQSLLYSSNQKNYLAWYQQKLGQSPKLLIYWASTRESGVPDRFTGSGSGTDFTLTISSVKAEDLAVYYCQHYYSYPRTFGGGTKLEIK,,,,,,,61* %,70* %,0,0,0
ChAb3-CZ (conjugate) VH: EVKLVESGGGLVQPGNSLRLSCATSGFTFIDYYMSWVRQSPGKALEWLGFIRNKANGYTTEYSASVKGRFTISRDNSQSILYLQMDTLRAEDSATYYCTRDRPAWFVYWGQGTLVTVSA VL: DIVMSQSPSSLAVSVGEKVTMSCKSSQSLLYSSNQKNYLAWYQQKPGQSPKLLIYWASTRESGVPDRFTGSGSGTDFTLTFSSVRAEDLAVYYCQQYYSYPYTFGGGTKLEIK,,,,,,,37* %,54* %,0,0,0
ChAb3- CZ-DAR4 (conjugate) VH: EVKLVESGGGLVQPGNSLRLSCATSGFTFIDYYMSWVRQSPGKALEWLGFIRNKANGYTTEYSASVKGRFTISRDNSQSILYLQMDTLRAEDSATYYCTRDRPAWFVYWGQGTLVTVSA VL: DIVMSQSPSSLAVSVGEKVTMSCKSSQSLLYSSNQKNYLAWYQQKPGQSPKLLIYWASTRESGVPDRFTGSGSGTDFTLTFSSVRAEDLAVYYCQQYYSYPYTFGGGTKLEIK,,,,,,13.8,,,,,
ChAb13-CZ (conjugate) VH: QVQLKESGPGLVQPSQTLSLTCTVSGFSLSSYGVIWVRQPPGKGLEWMGIIWANGNTNYNSALKSRLSISRDTSKSQVYLKMNSLQTEDTATYYCARHYYDGTHYYGYFDYWGQGVMVTVSS VL: DTVMTQTPSSQAVSAGEKVTMSCKSSQSLLYSENKKKYLAWYQQKPGQSPKLLIYWASTRESGVPDRFIGSGSGTDFTLTISSVQAEDLAVYYCQQYYNFPYTFGAGTKLELK,,,,,,,47* %,61* %,0,0,0
ChAb11-CZ (conjugate) VH: EVQLVESGGGLVQPGRSLKLSCAASGFTFSDYAMAWVRQAPKKGLEWVAGIIYDGRGTYYRDSVKGRFTISRDNAKSTLYLQMDSLRSEDTATYYCARQGDGTYYYWGYFDYWGQGVMVTVSS VL: DIVMTQSPSSLAVSAGETVTINCRSSQSLLSSGNQKNYLAWYQQKPGQSPKLLIYWASTRQSGVPDRFIGSGSGTDFTLTISSVQAEDLAIYYCQQYYDTPYTFGAGTKLELK,,,,,,,37* %,55* %,0,0,0
ChAb12-CZ (conjugate) VH: EVQLVESGGGLVQPGRSLKLSCAASGFTFSDYAMAWVRQAPKKGLEWVASIIYDGRGTYYRDSVKGRFTISRDNAKSTLYLQMDSLRSEDTATYYCARQGDGTYYYWGSFDYWGQGVMVTVSS VL: DIVMTQSPSSLAVSAGETVTINCKSSQSLLSSGNQKNYLAWYQQKPGQSPKLLIYWASTRQSGVPDRFIGSGSGTDFTLTISSVQAEDLAIYHCQQYYDTPYTFGAGTKLELK,,,,,,,74* %,76* %,0,25,25
ChAb15-CZ (conjugate) VH: EVQLVESGGGLVQPGRSLKLSCAASGFTFSDYTMAWVRQAPKKGLEWVATIIYDGRGTYYRDSVKGRFTISRDNAKSTLYLQMDSLRSEDTATYYCARQSDGTYYYWGYFDYWGQGVMVTVSS VL: DIVMTQSPSSLAVSAGETVTINCKSSQSLLFSGNQKNYLAWYQQKPGQSPKLLIYWASTRQSGVPDRFIGSGSGTDFTLTIRSVQAEDLAIYYCQQYYDSPYTFGAGTKLELK,,,,,,,74* %,70* %,0,0,0
ChAb8-CZ (conjugate) VH: EVQLVESGGGLVQPGRSLKLSCAASGFTFSDYAMAWVRQAPKKGLEWVASIIYDGRGTYYRDSVKGRFTISRDNAKSTLYLQMDSLRSEDTATYYCARQGDGTYYYWGYFDYWGQGVMVTVSS VL: DIVMTQSPSSLAVSAGETVTINCKSSQSLLSSGNQKNYLAWYQQKPGQSPKLLIYWASTRQSGVPDRFIGSGSGTDFTLTINSVQAEDLAIYYCQQYYDTPYTFGAGTKLELK,,,,,,,42* %,56* %,0,0,0
